According to patent US7067277 (H LUNDBECK A S, dated 2006):

T1: human Y2 receptor (human, UniProt P49146 1-381)
T1 sequence (looked up): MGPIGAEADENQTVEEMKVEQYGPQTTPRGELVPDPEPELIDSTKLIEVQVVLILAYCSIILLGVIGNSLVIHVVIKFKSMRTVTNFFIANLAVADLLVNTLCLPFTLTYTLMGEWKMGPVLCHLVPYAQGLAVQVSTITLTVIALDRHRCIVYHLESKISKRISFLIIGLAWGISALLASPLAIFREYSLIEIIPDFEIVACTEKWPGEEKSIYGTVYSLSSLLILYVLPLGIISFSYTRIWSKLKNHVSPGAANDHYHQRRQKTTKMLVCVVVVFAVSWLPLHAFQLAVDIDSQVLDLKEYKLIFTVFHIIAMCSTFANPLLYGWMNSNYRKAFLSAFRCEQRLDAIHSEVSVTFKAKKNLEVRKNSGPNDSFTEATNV

T2: rat GALR1 receptor (rat, UniProt Q62805 1-346)
T2 sequence (looked up): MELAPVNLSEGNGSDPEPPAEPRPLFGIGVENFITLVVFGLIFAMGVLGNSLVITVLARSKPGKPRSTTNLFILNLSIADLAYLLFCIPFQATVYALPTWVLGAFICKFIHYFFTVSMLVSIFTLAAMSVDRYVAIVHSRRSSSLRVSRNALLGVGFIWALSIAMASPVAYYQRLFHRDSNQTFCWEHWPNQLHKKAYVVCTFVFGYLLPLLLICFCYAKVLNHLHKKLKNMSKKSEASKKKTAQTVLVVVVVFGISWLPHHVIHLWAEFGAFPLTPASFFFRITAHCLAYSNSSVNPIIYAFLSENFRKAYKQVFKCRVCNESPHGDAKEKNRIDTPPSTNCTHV

T3: human GALR3 receptor (human, UniProt O60755 1-368)
T3 sequence (looked up): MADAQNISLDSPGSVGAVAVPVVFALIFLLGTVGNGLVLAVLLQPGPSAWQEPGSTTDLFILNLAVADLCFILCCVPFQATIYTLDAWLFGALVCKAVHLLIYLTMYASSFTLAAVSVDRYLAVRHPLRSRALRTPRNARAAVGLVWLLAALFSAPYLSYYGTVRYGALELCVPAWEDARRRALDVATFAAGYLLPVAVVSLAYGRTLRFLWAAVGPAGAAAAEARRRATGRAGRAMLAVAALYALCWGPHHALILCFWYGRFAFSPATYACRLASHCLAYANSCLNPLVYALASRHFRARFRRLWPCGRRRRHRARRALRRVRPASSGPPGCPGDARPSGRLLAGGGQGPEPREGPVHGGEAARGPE

T4: human Y5 receptor (human, UniProt Q15761 1-445)
T4 sequence (looked up): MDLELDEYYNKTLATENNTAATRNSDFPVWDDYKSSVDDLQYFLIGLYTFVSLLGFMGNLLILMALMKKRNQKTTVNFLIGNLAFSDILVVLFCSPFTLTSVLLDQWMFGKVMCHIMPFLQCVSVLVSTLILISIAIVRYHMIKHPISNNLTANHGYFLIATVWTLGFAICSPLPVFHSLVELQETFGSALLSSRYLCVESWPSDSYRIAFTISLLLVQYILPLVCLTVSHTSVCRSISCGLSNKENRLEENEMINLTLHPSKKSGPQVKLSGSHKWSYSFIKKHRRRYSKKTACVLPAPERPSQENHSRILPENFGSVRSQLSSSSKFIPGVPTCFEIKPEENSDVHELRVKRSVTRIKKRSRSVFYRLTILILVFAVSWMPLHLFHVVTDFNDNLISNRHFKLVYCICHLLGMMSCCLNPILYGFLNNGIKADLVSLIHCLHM

T5: human α2B adrenergic receptor (human, UniProt P18089 1-450)
T5 sequence (looked up): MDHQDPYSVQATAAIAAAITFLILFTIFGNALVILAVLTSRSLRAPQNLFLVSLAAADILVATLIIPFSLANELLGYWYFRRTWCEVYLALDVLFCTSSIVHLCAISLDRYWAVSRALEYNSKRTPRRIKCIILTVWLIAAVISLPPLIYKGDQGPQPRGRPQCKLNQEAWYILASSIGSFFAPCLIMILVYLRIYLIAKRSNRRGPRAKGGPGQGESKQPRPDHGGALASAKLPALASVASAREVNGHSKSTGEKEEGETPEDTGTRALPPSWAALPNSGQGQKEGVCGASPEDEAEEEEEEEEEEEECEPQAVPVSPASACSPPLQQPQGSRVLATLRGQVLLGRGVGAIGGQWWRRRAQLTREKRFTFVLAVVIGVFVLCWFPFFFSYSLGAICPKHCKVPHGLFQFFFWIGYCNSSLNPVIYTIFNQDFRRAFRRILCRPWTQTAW

T6: human Y1 receptor (human, UniProt P25929 1-384)
T6 sequence (looked up): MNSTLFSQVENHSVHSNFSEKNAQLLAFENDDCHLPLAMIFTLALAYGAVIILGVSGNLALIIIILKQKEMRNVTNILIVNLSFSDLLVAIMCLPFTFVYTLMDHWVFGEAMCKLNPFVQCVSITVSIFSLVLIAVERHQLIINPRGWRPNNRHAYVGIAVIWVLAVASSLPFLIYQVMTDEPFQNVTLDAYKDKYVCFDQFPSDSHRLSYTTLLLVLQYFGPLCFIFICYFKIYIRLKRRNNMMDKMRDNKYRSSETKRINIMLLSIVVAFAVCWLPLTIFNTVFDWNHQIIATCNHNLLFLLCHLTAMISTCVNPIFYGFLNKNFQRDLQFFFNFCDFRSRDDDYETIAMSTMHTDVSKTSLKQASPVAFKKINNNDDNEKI

B1: C. elegans Gαq/z5 (other)
chain: MACCLSEEAREQKRINQEIEKQLQRDKRNARRELKLLLLGTGESGKSTFIKQMRIIHGQGYSEEDKRAHIRLVYQNVFMAIQSMIRAMDTLDIKFGNESEELQEKAAVVREVDFESVTSFEEPYVSYIKELWEDSGIQECYDRRREYQLTDSAKYYLSDLRRLAVPDYLPTEQDILRVRVPTTGIIEYPFDLEQIIFRMVDVGGQRSERRKWIHCFENVTSIMFLVALSEYDQVLVECDNENRMEESKALFRTIITYPWFTNSSVILFLNKKDLLEEKILYSHLADYFPEYDGPPRDPIAAREFILKMFVDLNPDADKIIYSHFTCATDTENIRFVFAAVKDTILQHNLKYIGLC
B2: C. elegans Gαq/z9 (other)
chain: MACCLSEEAREQKRINQEIEKQLQRDKRNARRELKLLLLGTGESGKSTFIKQMRIIHGQGYSEEDKRAHIRLVYQNVFMAIQSMIRAMDTLDIKFGNESEELQEKAAVVREVDFESVTSFEEPYVSYIKELWEDSGIQECYDRRREYQLTDSAKYYLSDLRRLAVPDYLPTEQDILRVRVPTTGIIEYPFDLEQIIFRMVDVGGQRSERRKWIHCFENVTSIMFLVALSEYDQVLVECDNENRMEESKALFRTIITYPWFTNSSVILFLNKKDLLEEKILYSHLADYFPEYDGPPRDPIAAREFILKMFVDLNPDADKIIYSHFTCATDTENIRFVFAAVKDTILQNNLKYIGLC
B3: Human Gαq/z5 (Ala→Ser substitution at position 171) (other)
chain: MTLESIMACCLSEEAKEARRINDEIERQLRRDKRDARRELKLLLLGTGESGKSTFIKQMRIIHGSGYSDEDKRGFTKLVYQNIFTAMQAMIRAMDTLKIPYKYEHNKAHAQLVREVDVEKVSAFENPYVDAIKSLWNDPGIQECYDRRREYQLSDSTKYYLNDLDRVADPSYLPTQQDVLRVRVPTTGIIEYPFDLQSVIFRMVDVGGQRSERRKWIHCFENVTSIMFLVALSEYDQVLVESDNENRMEESKALFRTIITYPWFQNSSVILFLNKKDLLEEKIMYSHLVDYFPEYDGPQRDAQAAREFILKMFVDLNPDSDKIIYSHFTCATDTENIRFVFAAVKDTILQLNLKYIGLC

How the values were obtained:
Assay in all cases: cell-based or functional assay
human Y2 receptor = molecular target: T1, human Y2 receptor
[1] = molecular target: human dopamine D5 receptor (human, UniProt P21918 1-477)
mouse 5HT5A receptor = mouse 5HT5A receptor (mouse, UniProt P30966 1-357)
rat GALR1 receptor = molecular target: T2, rat GALR1 receptor
human NPFF1 receptor = human NPFF1 receptor (human, UniProt Q9GZQ6 1-430)
human GALR3 receptor = molecular target: T3, human GALR3 receptor
[2] = molecular target: human dopamine D2 receptor (human, UniProt P14416 1-443)
human 5HT1E receptor = human 5HT1E receptor (human, UniProt P28566 1-365)
human Y5 receptor = molecular target: T4, human Y5 receptor
human 5HT6 receptor = human 5HT6 receptor (human, UniProt P50406 1-440)
[3] = molecular target: human β2 adrenergic receptor (human, UniProt P07550 1-413)
[4] = molecular target: human dopamine D1 receptor (human, UniProt P21728 1-446)
[5] = molecular target: T5, human α2B adrenergic receptor
human Y1 receptor = molecular target: T6, human Y1 receptor

Chain of human 5HT6 receptor (P50406 whole entry): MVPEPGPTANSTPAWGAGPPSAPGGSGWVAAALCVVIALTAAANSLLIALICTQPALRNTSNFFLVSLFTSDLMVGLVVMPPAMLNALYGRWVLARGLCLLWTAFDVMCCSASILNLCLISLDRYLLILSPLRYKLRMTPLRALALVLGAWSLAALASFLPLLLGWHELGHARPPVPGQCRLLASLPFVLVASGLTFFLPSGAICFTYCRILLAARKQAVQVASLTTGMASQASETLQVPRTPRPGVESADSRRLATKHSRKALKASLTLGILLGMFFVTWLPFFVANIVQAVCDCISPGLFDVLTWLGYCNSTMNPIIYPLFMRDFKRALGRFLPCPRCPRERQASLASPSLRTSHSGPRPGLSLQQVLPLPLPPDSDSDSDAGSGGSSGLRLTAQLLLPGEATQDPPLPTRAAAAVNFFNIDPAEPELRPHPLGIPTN
Chain of human NPFF1 receptor (Q9GZQ6 whole entry): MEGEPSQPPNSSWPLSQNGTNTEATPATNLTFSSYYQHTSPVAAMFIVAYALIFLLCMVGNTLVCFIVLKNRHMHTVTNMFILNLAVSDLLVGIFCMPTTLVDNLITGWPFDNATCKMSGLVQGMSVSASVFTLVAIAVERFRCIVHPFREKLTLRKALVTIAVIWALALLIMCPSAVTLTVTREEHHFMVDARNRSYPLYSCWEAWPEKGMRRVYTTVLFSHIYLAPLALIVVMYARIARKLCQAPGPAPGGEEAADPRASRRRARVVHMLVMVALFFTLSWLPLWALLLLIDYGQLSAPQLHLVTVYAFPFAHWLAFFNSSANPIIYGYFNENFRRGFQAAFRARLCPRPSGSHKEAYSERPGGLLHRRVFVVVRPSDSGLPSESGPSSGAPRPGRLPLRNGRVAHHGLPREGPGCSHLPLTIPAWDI
Chain of human dopamine D5 receptor (P21918 whole entry): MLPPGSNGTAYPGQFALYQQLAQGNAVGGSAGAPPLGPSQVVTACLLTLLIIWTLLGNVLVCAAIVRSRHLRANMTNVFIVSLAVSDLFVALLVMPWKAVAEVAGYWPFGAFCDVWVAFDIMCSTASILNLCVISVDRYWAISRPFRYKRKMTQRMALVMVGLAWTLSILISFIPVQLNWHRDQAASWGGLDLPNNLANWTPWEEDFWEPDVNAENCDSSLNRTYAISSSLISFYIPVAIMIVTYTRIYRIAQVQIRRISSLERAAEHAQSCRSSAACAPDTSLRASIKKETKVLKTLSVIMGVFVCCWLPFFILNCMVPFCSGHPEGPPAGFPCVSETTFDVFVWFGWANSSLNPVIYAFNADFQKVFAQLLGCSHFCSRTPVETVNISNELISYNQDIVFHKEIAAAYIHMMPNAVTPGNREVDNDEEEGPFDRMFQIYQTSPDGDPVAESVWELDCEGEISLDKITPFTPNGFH
Chain of human dopamine D1 receptor (P21728 whole entry): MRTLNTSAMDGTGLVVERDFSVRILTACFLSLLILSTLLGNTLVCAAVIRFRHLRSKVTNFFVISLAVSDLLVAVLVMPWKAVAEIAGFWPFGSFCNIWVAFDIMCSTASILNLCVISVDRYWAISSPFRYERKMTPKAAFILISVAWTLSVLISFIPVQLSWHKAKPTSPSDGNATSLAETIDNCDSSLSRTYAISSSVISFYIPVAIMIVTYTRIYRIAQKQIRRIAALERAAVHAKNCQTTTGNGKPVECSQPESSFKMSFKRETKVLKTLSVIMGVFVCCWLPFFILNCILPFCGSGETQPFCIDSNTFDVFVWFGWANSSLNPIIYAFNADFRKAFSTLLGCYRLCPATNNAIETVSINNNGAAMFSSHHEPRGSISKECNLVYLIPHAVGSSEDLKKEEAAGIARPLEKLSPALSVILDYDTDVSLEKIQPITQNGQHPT
Chain of human dopamine D2 receptor (P14416 whole entry): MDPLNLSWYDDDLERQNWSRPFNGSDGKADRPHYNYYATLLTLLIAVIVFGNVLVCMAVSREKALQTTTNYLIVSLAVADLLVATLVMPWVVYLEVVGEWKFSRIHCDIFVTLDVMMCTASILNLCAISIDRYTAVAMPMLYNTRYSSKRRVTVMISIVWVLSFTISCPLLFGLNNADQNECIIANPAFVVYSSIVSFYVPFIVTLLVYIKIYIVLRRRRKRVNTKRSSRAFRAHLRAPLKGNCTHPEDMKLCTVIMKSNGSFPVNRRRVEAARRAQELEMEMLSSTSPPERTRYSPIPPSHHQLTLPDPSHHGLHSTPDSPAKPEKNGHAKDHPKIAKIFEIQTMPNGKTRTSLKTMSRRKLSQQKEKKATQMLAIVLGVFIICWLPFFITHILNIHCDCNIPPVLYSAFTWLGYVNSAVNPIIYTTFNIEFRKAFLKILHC
Chain of human 5HT1E receptor (P28566 whole entry): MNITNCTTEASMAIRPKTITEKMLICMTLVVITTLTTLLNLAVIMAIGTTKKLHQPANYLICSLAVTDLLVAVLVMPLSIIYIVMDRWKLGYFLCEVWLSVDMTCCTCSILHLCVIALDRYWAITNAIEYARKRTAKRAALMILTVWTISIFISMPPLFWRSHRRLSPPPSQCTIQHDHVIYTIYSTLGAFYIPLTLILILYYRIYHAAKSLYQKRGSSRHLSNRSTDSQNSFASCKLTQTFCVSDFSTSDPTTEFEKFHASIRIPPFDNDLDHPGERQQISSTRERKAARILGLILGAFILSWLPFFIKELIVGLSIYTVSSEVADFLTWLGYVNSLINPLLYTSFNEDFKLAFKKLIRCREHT
Chain of mouse 5HT5A receptor (P30966 whole entry): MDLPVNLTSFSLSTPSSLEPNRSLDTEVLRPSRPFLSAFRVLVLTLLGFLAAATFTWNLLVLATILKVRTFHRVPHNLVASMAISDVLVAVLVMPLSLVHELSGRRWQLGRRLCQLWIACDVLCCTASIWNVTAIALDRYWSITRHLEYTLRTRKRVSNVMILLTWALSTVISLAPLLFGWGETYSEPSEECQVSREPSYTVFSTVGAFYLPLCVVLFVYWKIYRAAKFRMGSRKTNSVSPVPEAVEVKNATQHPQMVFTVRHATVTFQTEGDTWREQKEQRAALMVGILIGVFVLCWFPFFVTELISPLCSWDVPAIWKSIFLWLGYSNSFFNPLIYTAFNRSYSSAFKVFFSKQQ

| Binder | max Ca2+ signal, COS-7, FLIPR; agonist NPY (human Y2 receptor) | max Ca2+ signal, COS-7, FLIPR; agonist DA [1] | max Ca2+ signal, COS-7, FLIPR; agonist 5HT (mouse 5HT5A receptor) | max Ca2+ signal, COS-7, FLIPR; agonist GAL (rat GALR1 receptor) | max Ca2+ signal, COS-7, FLIPR; agonist NPFF (human NPFF1 receptor) | max Ca2+ signal, COS-7, FLIPR; agonist GAL (human GALR3 receptor) | max Ca2+ signal, COS-7, FLIPR; agonist DA [2] | max Ca2+ signal, COS-7, FLIPR; agonist 5HT (human 5HT1E receptor) | max Ca2+ signal, COS-7, FLIPR; agonist NPY (human Y5 receptor) | max Ca2+ signal, COS-7, FLIPR; agonist 5HT (human 5HT6 receptor) | max Ca2+ signal, COS-7, FLIPR; agonist NE [3] | max Ca2+ signal, COS-7, FLIPR; agonist DA [4] | max Ca2+ signal, COS-7, FLIPR; agonist NE [5] | max Ca2+ signal, COS-7, FLIPR; agonist NPY (human Y1 receptor) |
| --- | --- | --- | --- | --- | --- | --- | --- | --- | --- | --- | --- | --- | --- | --- |
| B1 | 7710 fluorescence units | 657 fluorescence units | 351 fluorescence units | 3090 fluorescence units | 6590 fluorescence units | 1520 fluorescence units | 7620 fluorescence units | 229 fluorescence units | 5310 fluorescence units | 1290 fluorescence units | 1840 fluorescence units | 12100 fluorescence units | 4980 fluorescence units | 7720 fluorescence units |
| B2 | 5390 fluorescence units | 797 fluorescence units | 270 fluorescence units | 5950 fluorescence units | 2970 fluorescence units | 2050 fluorescence units | 4300 fluorescence units | 238 fluorescence units | 6680 fluorescence units | 2290 fluorescence units | 1700 fluorescence units | 13100 fluorescence units | 5140 fluorescence units | 6730 fluorescence units |
| B3 | 10900 fluorescence units | 782 fluorescence units | 0 fluorescence units | 82 fluorescence units | 4720 fluorescence units | 804 fluorescence units | 15600 fluorescence units | 202 fluorescence units | 6410 fluorescence units | 210 fluorescence units | 128 fluorescence units | 0 fluorescence units | 4520 fluorescence units | 1880 fluorescence units |
